One may read the EC50 as the concentration that produces a half-maximal response. The low end stands for higher potency in that assay, the high end for lower potency in that assay.

The results in this text go back to publication PMC9060471 (2022).

This assay has as its target 6xHis-TLX ligand-binding domain (UniProt Q9Y466 155-385).

6xHis-TLX ligand-binding domain, sequence (Q9Y466 155-385): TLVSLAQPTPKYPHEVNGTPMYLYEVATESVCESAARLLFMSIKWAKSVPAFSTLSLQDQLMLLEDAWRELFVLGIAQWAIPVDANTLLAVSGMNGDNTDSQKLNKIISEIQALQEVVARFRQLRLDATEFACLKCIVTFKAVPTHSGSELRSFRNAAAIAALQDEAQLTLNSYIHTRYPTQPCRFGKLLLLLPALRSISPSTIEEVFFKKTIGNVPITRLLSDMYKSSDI

In the case of LTERHKILHRLLQEGSPSD [NCOA1-II peptide (competitor in the ALPHA competition experiment)], the EC50 is 3.3 µM.
